Measurements published in the supplement of paper PMC9112550, “Optimization of the antimicrobial peptide Bac7 by deep mutational scanning” (BMC Biology, 2022).

Test system: Escherichia coli TOP10
Test: shrunken log2 fold change of peptide-encoding DNA abundance (4.5 h post-induction vs induction); higher = less antimicrobial activity (less host growth inhibition)
Settings: time post-induction: 4.5 h; library: site-saturation at positions 5, 18, 19, 20
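Also: peptides expressed intracellularly from a pBAD plasmid library in pooled LB shake-flask culture, induced with 0.3% L-arabinose, DNA abundance read by NGS, three biological replicates, DESeq2 with apeglm shrinkage.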

Row | Sequence | shrunken log2 fold change
1 | RRIRERPPRLPRPRPRPLFHPRP | -0.367
2 | RRIRERPPRLPRPRPRPLFSPRP | -0.364
3 | RRIRERPPRLPRPRPRPLGHPRP | 0.187
4 | RRIRERPPRLPRPRPRPLHWPRP | 0.0186
5 | RRIRERPPRLPRPRPRPLLEPRP | 0.105
6 | RRIRERPPRLPRPRPRPLNMPRP | -0.528
7 | RRIRERPPRLPRPRPRPLNQPRP | -0.547
8 | RRIRERPPRLPRPRPRPLQPPRP | 0.468
9 | RRIRERPPRLPRPRPRPLQSPRP | -0.306
10 | RRIRERPPRLPRPRPRPLRKPRP | 0.722
11 | RRIRERPPRLPRPRPRPLRWPRP | 0.459
12 | RRIRERPPRLPRPRPRPLSQPRP | -0.406
13 | RRIRERPPRLPRPRPRPLTIPRP | -0.101
14 | RRIRERPPRLPRPRPRPLTMPRP | -0.308
15 | RRIRERPPRLPRPRPRPLTWPRP | 3.04
16 | RRIRERPPRLPRPRPRPLVKPRP | -0.575
17 | RRIRERPPRLPRPRPRPLVLPRP | -0.333
18 | RRIRERPPRLPRPRPRPLWAPRP | 0.274
19 | RRIRERPPRLPRPRPRPLYPPRP | -0.458
20 | RRIRERPPRLPRPRPRPMCVPRP | -0.461
21 | RRIRERPPRLPRPRPRPMCWPRP | 0.451
22 | RRIRERPPRLPRPRPRPMHRPRP | -0.157
23 | RRIRERPPRLPRPRPRPMINPRP | -0.0967
24 | RRIRERPPRLPRPRPRPMLTPRP | 0.151
25 | RRIRERPPRLPRPRPRPMMMPRP | -0.182

Row | Sequence | shrunken log2 fold change
26 | RRIRERPPRLPRPRPRPMMTPRP | -0.067
27 | RRIRERPPRLPRPRPRPMPPPRP | 0.197
28 | RRIRERPPRLPRPRPRPMRAPRP | 0.763
29 | RRIRERPPRLPRPRPRPMRCPRP | 0.0239
30 | RRIRERPPRLPRPRPRPMVHPRP | -0.281
31 | RRIRERPPRLPRPRPRPMWFPRP | -0.159
32 | RRIRERPPRLPRPRPRPMYRPRP | -0.273
33 | RRIRERPPRLPRPRPRPMYTPRP | -0.469
34 | RRIRERPPRLPRPRPRPNCEPRP | -0.155
35 | RRIRERPPRLPRPRPRPNDEPRP | -0.0119
36 | RRIRERPPRLPRPRPRPNDNPRP | -0.882
37 | RRIRERPPRLPRPRPRPNEKPRP | -0.0183
38 | RRIRERPPRLPRPRPRPNFFPRP | -0.0705
39 | RRIRERPPRLPRPRPRPNGKPRP | -0.0394
40 | RRIRERPPRLPRPRPRPNGYPRP | -0.193
41 | RRIRERPPRLPRPRPRPNICPRP | -0.523
42 | RRIRERPPRLPRPRPRPNIWPRP | -0.0737
43 | RRIRERPPRLPRPRPRPNKSPRP | -0.369
44 | RRIRERPPRLPRPRPRPNLTPRP | -0.171
45 | RRIRERPPRLPRPRPRPNLVPRP | -0.0264
46 | RRIRERPPRLPRPRPRPNMLPRP | -0.753
47 | RRIRERPPRLPRPRPRPNMWPRP | -0.647
48 | RRIRERPPRLPRPRPRPNNAPRP | -0.162
49 | RRIRERPPRLPRPRPRPNNTPRP | -0.769
50 | RRIRERPPRLPRPRPRPNPEPRP | -0.0358

Row | Sequence | shrunken log2 fold change
51 | RRIRERPPRLPRPRPRPNPIPRP | -0.213
52 | RRIRERPPRLPRPRPRPNRTPRP | -1.51
53 | RRIRERPPRLPRPRPRPNSGPRP | -0.463
54 | RRIRERPPRLPRPRPRPNTWPRP | 0.0226
55 | RRIRERPPRLPRPRPRPNVRPRP | 0.0403
56 | RRIRERPPRLPRPRPRPNWIPRP | -0.324
57 | RRIRERPPRLPRPRPRPPCHPRP | -0.251
58 | RRIRERPPRLPRPRPRPPEVPRP | 0.452
59 | RRIRERPPRLPRPRPRPPFYPRP | -0.367
60 | RRIRERPPRLPRPRPRPPGEPRP | 0.439
61 | RRIRERPPRLPRPRPRPPGSPRP | -0.0206
62 | RRIRERPPRLPRPRPRPPHYPRP | -0.159
63 | RRIRERPPRLPRPRPRPPKNPRP | 0.284
64 | RRIRERPPRLPRPRPRPPLMPRP | 0.0142
65 | RRIRERPPRLPRPRPRPPLTPRP | -0.0766
66 | RRIRERPPRLPRPRPRPPMCPRP | -0.305
67 | RRIRERPPRLPRPRPRPPNGPRP | 0.203
68 | RRIRERPPRLPRPRPRPPPIPRP | 0.267
69 | RRIRERPPRLPRPRPRPPPNPRP | 0.451
70 | RRIRERPPRLPRPRPRPPQDPRP | 0.113
71 | RRIRERPPRLPRPRPRPPQTPRP | 0.223
72 | RRIRERPPRLPRPRPRPPQYPRP | -0.517
73 | RRIRERPPRLPRPRPRPPREPRP | 0.87
74 | RRIRERPPRLPRPRPRPPRWPRP | 0.508
75 | RRIRERPPRLPRPRPRPPTNPRP | 0.0754

Row | Sequence | shrunken log2 fold change
76 | RRIRERPPRLPRPRPRPPVLPRP | 0.127
77 | RRIRERPPRLPRPRPRPPVPPRP | 0.45
78 | RRIRERPPRLPRPRPRPPWPPRP | 0.408
79 | RRIRERPPRLPRPRPRPQAHPRP | -0.0188
80 | RRIRERPPRLPRPRPRPQCPPRP | -0.207
81 | RRIRERPPRLPRPRPRPQCYPRP | -0.186
82 | RRIRERPPRLPRPRPRPQESPRP | -0.239
83 | RRIRERPPRLPRPRPRPQFLPRP | -0.571
84 | RRIRERPPRLPRPRPRPQGEPRP | -0.0686
85 | RRIRERPPRLPRPRPRPQGPPRP | 0.0515
86 | RRIRERPPRLPRPRPRPQKNPRP | -0.49
87 | RRIRERPPRLPRPRPRPQMFPRP | 0.0221
88 | RRIRERPPRLPRPRPRPQNQPRP | -0.612
89 | RRIRERPPRLPRPRPRPQNWPRP | -0.0518
90 | RRIRERPPRLPRPRPRPQQIPRP | -0.384
91 | RRIRERPPRLPRPRPRPQQRPRP | 0.0285
92 | RRIRERPPRLPRPRPRPQQSPRP | -0.05
93 | RRIRERPPRLPRPRPRPQQVPRP | -0.0841
94 | RRIRERPPRLPRPRPRPQRIPRP | -0.0866
95 | RRIRERPPRLPRPRPRPQRSPRP | -0.106
96 | RRIRERPPRLPRPRPRPQTQPRP | -0.0049
97 | RRIRERPPRLPRPRPRPQWAPRP | -0.0475
98 | RRIRERPPRLPRPRPRPRAAPRP | 0.448
99 | RRIRERPPRLPRPRPRPRDVPRP | 0.0772
100 | RRIRERPPRLPRPRPRPREEPRP | -0.00173

Row | Sequence | shrunken log2 fold change
101 | RRIRERPPRLPRPRPRPREVPRP | 0.13
102 | RRIRERPPRLPRPRPRPRFDPRP | 1.26
103 | RRIRERPPRLPRPRPRPRFRPRP | 0.0352
104 | RRIRERPPRLPRPRPRPRHDPRP | -0.328
105 | RRIRERPPRLPRPRPRPRIHPRP | -0.737
106 | RRIRERPPRLPRPRPRPRIPPRP | -0.269
107 | RRIRERPPRLPRPRPRPRMRPRP | 0.506
108 | RRIRERPPRLPRPRPRPRMWPRP | 0.302
109 | RRIRERPPRLPRPRPRPRNEPRP | -0.473
110 | RRIRERPPRLPRPRPRPRPHPRP | 0.791
111 | RRIRERPPRLPRPRPRPRQAPRP | 0.0291
112 | RRIRERPPRLPRPRPRPRSAPRP | 0.25
113 | RRIRERPPRLPRPRPRPRVWPRP | 0.387
114 | RRIRERPPRLPRPRPRPRWSPRP | -0.078
115 | RRIRERPPRLPRPRPRPRWTPRP | 0.0925
116 | RRIRERPPRLPRPRPRPSELPRP | 0.0285
117 | RRIRERPPRLPRPRPRPSEQPRP | -0.0297
118 | RRIRERPPRLPRPRPRPSFQPRP | -0.0708
119 | RRIRERPPRLPRPRPRPSHMPRP | -0.431
120 | RRIRERPPRLPRPRPRPSHRPRP | -0.0834
121 | RRIRERPPRLPRPRPRPSIKPRP | -0.755
122 | RRIRERPPRLPRPRPRPSIPPRP | -0.758
123 | RRIRERPPRLPRPRPRPSKGPRP | -0.35
124 | RRIRERPPRLPRPRPRPSKKPRP | -0.645
125 | RRIRERPPRLPRPRPRPSLMPRP | -0.459

Row | Sequence | shrunken log2 fold change
126 | RRIRERPPRLPRPRPRPSNAPRP | -0.086
127 | RRIRERPPRLPRPRPRPSNMPRP | -0.683
128 | RRIRERPPRLPRPRPRPSPCPRP | -0.229
129 | RRIRERPPRLPRPRPRPSRFPRP | 0.17
130 | RRIRERPPRLPRPRPRPSRPPRP | 0.168
131 | RRIRERPPRLPRPRPRPSSAPRP | 0.0581
132 | RRIRERPPRLPRPRPRPSSSPRP | 0.307
133 | RRIRERPPRLPRPRPRPSTIPRP | -0.551
134 | RRIRERPPRLPRPRPRPSTPPRP | -0.28
135 | RRIRERPPRLPRPRPRPSVGPRP | 0.0861
136 | RRIRERPPRLPRPRPRPSWCPRP | -0.0728
137 | RRIRERPPRLPRPRPRPSWHPRP | -0.215
138 | RRIRERPPRLPRPRPRPSWNPRP | -0.701
139 | RRIRERPPRLPRPRPRPSYFPRP | -0.48
140 | RRIRERPPRLPRPRPRPSYNPRP | -0.924
141 | RRIRERPPRLPRPRPRPTAEPRP | 0.265
142 | RRIRERPPRLPRPRPRPTHEPRP | 0.317
143 | RRIRERPPRLPRPRPRPTHVPRP | 0.231
144 | RRIRERPPRLPRPRPRPTIFPRP | -0.0972
145 | RRIRERPPRLPRPRPRPTKNPRP | -0.187
146 | RRIRERPPRLPRPRPRPTLQPRP | 0.125
147 | RRIRERPPRLPRPRPRPTLWPRP | 0.364
148 | RRIRERPPRLPRPRPRPTMTPRP | -0.389
149 | RRIRERPPRLPRPRPRPTNHPRP | -0.472
150 | RRIRERPPRLPRPRPRPTPHPRP | 0.308
